According to the supplement of paper PMC10567573:

B1: TPD52L2 (parent)
chain: EAEEEELRAELTKVEEEIVTLRQV

Variants of: B1
Assay: protein stability index of a GFP-peptide fusion (GPS, HEK-293T) (PSI 1-6); higher = more stable
Details: c terminus: a fixed tail appended
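Also: lentivirally expressed fusions sorted by FACS into six bins by GFP to DsRed ratio, PSI derived from sequencing read proportions per bin multiplied by bin number.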

Going from EAGEEELRAELTKVEEEIVTLRQV to EACEEELRAELTKVEEEIVTLRQV, the protein stability index falls from 3.52 to 2.65.

First: EAIEEELRAELTKVEEEIVTLRQV
Second: EAPEEELRAELTKVEEEIVTLRQV
The protein stability index of the first is lower: 2.79 for the first, 2.92 for the second.

Going from EAWEEELRAELTKVEEEIVTLRQV to EADEEELRAELTKVEEEIVTLRQV, the protein stability index rises from 3.43 to 4.29.

Going from EAHEEELRAELTKVEEEIVTLRQV to EANEEELRAELTKVEEEIVTLRQV, the protein stability index rises from 3.08 to 3.1.

Compared with EAQEEELRAELTKVEEEIVTLRQV, EAYEEELRAELTKVEEEIVTLRQV is higher in protein stability index: 2.73 for the first, 2.86 for the second.

Compared with EAMEEELRAELTKVEEEIVTLRQV, EAREEELRAELTKVEEEIVTLRQV is higher in protein stability index: 2.71 for the first, 3.04 for the second.

Going from EATEEELRAELTKVEEEIVTLRQV to EAAEEELRAELTKVEEEIVTLRQV, the protein stability index rises from 2.83 to 3.04.

Going from EAFEEELRAELTKVEEEIVTLRQV to EAEERELRAELTKVEEEIVTLRQV, the protein stability index rises from 2.45 to 2.89.

First: EAEEKELRAELTKVEEEIVTLRQV
Second: EAEEFELRAELTKVEEEIVTLRQV
The protein stability index of the first is higher: 2.75 for the first, 2.34 for the second.

Compared with EAEEQELRAELTKVEEEIVTLRQV, EAEEIELRAELTKVEEEIVTLRQV is lower in protein stability index: 3.35 for the first, 2.98 for the second.

First: EAEESELRAELTKVEEEIVTLRQV
Second: EAEEWELRAELTKVEEEIVTLRQV
The protein stability index of the first is lower: 2.35 for the first, 2.42 for the second.

Going from EAEEYELRAELTKVEEEIVTLRQV to EAEEVELRAELTKVEEEIVTLRQV, the protein stability index falls from 3.06 to 1.62.

Compared with EAEENELRAELTKVEEEIVTLRQV, EAEEAELRAELTKVEEEIVTLRQV is higher in protein stability index: 2.28 for the first, 2.3 for the second.

Going from EAEECELRAELTKVEEEIVTLRQV to EAEETELRAELTKVEEEIVTLRQV, the protein stability index rises from 2.46 to 2.71.

Compared with EAEELELRAELTKVEEEIVTLRQV, EAEEMELRAELTKVEEEIVTLRQV is lower in protein stability index: 2.64 for the first, 2.48 for the second.

Going from EAEEDELRAELTKVEEEIVTLRQV to EAEEGELRAELTKVEEEIVTLRQV, the protein stability index falls from 3.91 to 2.97.

Going from EAEEPELRAELTKVEEEIVTLRQV to EAEEHELRAELTKVEEEIVTLRQV, the protein stability index falls from 4.18 to 2.44.

Compared with EAEEEMLRAELTKVEEEIVTLRQV, EAEEEDLRAELTKVEEEIVTLRQV is higher in protein stability index: 2.08 for the first, 2.98 for the second.

First: EAEEEGLRAELTKVEEEIVTLRQV
Second: EAEEEKLRAELTKVEEEIVTLRQV
The protein stability index of the first is lower: 2.73 for the first, 3 for the second.

Compared with EAEEEPLRAELTKVEEEIVTLRQV, EAEEETLRAELTKVEEEIVTLRQV is lower in protein stability index: 4.32 for the first, 3.58 for the second.

Compared with EAEEECLRAELTKVEEEIVTLRQV, EAEEEILRAELTKVEEEIVTLRQV is higher in protein stability index: 2.51 for the first, 3.62 for the second.

Compared with EAEEEYLRAELTKVEEEIVTLRQV, EAEEEWLRAELTKVEEEIVTLRQV is lower in protein stability index: 3.08 for the first, 2.62 for the second.

Compared with EAEEELLRAELTKVEEEIVTLRQV, EAEEEHLRAELTKVEEEIVTLRQV is higher in protein stability index: 2.8 for the first, 2.91 for the second.

Compared with EAEEENLRAELTKVEEEIVTLRQV, EAEEEFLRAELTKVEEEIVTLRQV is lower in protein stability index: 3.15 for the first, 2.68 for the second.

First: EAEEEALRAELTKVEEEIVTLRQV
Second: EAEEEVLRAELTKVEEEIVTLRQV
The protein stability index of the first is lower: 3.06 for the first, 3.81 for the second.

Going from EAEEEQLRAELTKVEEEIVTLRQV to EAEEERLRAELTKVEEEIVTLRQV, the protein stability index falls from 3.46 to 3.23.

Going from EAEEESLRAELTKVEEEIVTLRQV to EAEDEELRAELTKVEEEIVTLRQV, the protein stability index rises from 3.12 to 3.89.

First: EAENEELRAELTKVEEEIVTLRQV
Second: EAEQEELRAELTKVEEEIVTLRQV
The protein stability index of the first is higher: 4.34 for the first, 4.02 for the second.

First: EAESEELRAELTKVEEEIVTLRQV
Second: EAEPEELRAELTKVEEEIVTLRQV
The protein stability index of the first is lower: 3.41 for the first, 3.68 for the second.

Compared with EAETEELRAELTKVEEEIVTLRQV, EAEIEELRAELTKVEEEIVTLRQV is lower in protein stability index: 3.75 for the first, 3.73 for the second.

Going from EAELEELRAELTKVEEEIVTLRQV to EAEAEELRAELTKVEEEIVTLRQV, the protein stability index falls from 3.81 to 3.77.

Going from EAEVEELRAELTKVEEEIVTLRQV to EAEWEELRAELTKVEEEIVTLRQV, the protein stability index falls from 3.63 to 2.93.

Compared with EAEKEELRAELTKVEEEIVTLRQV, EAEFEELRAELTKVEEEIVTLRQV is lower in protein stability index: 4.13 for the first, 2.79 for the second.

Going from EAECEELRAELTKVEEEIVTLRQV to EAEHEELRAELTKVEEEIVTLRQV, the protein stability index rises from 2.93 to 3.21.

First: EAEYEELRAELTKVEEEIVTLRQV
Second: EAEGEELRAELTKVEEEIVTLRQV
The protein stability index of the first is lower: 2.25 for the first, 3.23 for the second.

Going from EAEREELRAELTKVEEEIVTLRQV to EAEMEELRAELTKVEEEIVTLRQV, the protein stability index falls from 3.76 to 3.42.

Compared with EAEEEEDRAELTKVEEEIVTLRQV, EAEEEEERAELTKVEEEIVTLRQV is higher in protein stability index: 5.5 for the first, 5.74 for the second.

Compared with EAEEEEARAELTKVEEEIVTLRQV, EAEEEECRAELTKVEEEIVTLRQV is lower in protein stability index: 5.44 for the first, 4.93 for the second.

First: YAEEEELRAELTKVEEEIVTLRQV
Second: WAEEEELRAELTKVEEEIVTLRQV
The protein stability index of the first is higher: 3.35 for the first, 2.01 for the second.

Going from SAEEEELRAELTKVEEEIVTLRQV to TAEEEELRAELTKVEEEIVTLRQV, the protein stability index falls from 2.97 to 2.79.

Compared with NAEEEELRAELTKVEEEIVTLRQV, MAEEEELRAELTKVEEEIVTLRQV is higher in protein stability index: 2.5 for the first, 2.53 for the second.

Going from KAEEEELRAELTKVEEEIVTLRQV to RAEEEELRAELTKVEEEIVTLRQV, the protein stability index falls from 3.06 to 2.63.

Compared with AAEEEELRAELTKVEEEIVTLRQV, IAEEEELRAELTKVEEEIVTLRQV is lower in protein stability index: 3.63 for the first, 1.94 for the second.

Compared with LAEEEELRAELTKVEEEIVTLRQV, QAEEEELRAELTKVEEEIVTLRQV is higher in protein stability index: 2.57 for the first, 3.76 for the second.

Compared with HAEEEELRAELTKVEEEIVTLRQV, VAEEEELRAELTKVEEEIVTLRQV is higher in protein stability index: 3.07 for the first, 3.58 for the second.

Going from GAEEEELRAELTKVEEEIVTLRQV to FAEEEELRAELTKVEEEIVTLRQV, the protein stability index falls from 3.02 to 2.

Compared with PAEEEELRAELTKVEEEIVTLRQV, CAEEEELRAELTKVEEEIVTLRQV is lower in protein stability index: 3.43 for the first, 2.89 for the second.

Variant DAEEEELRAELTKVEEEIVTLRQV has a protein stability index of 3.74.
